Results: paper PMC7935256 (PLoS Pathogens, 2021)

How the values were obtained:
Assay in all cases: BLI
Conditions in all cases: both partners purified
[1] = molecular target: T1, DENV1 WestPac74 strain recombinant E protein ectodomain (residues 1-394) (dengue virus serotype 1, strain WestPac …)
T1 construct: also called DENV1 WestPac 74 rE protein; Western Pacific 1974

[2] = molecular target: T2, DENV2 PVP94/07 strain recombinant E protein ectodomain (residues 1-394) (dengue virus serotype 2, strain PVP94/07)
T2 construct: also called DENV2 PVP94/07 rE protein

[3] = molecular target: DENV2 NGC strain recombinant E protein ectodomain (residues 1-394) (dengue virus serotype 2, strain NGC)

B1: human monoclonal antibody (HMAb) 1C19, IgG (antibody, V domains shown)
VH: QVQLVESGGGVVQPGRSLRLSCAASGFIFSNYGMHWVRQAPGKGLEWVAVISYDGSDKRYADSVRGRFTISRDNSKNTLFLQVTSLRAEDTAVYYCAKELSGYDPGFEYWGQGTPVTVSS
VL: DIQMTQSPSTLSASVGDRVTITCRASQSINTWLAWYQQKPGKAPKLLIYKASSLESGVPSRFSGSGSGTEFTLTISSLQPDDFATYYCQQYESYATFGQGTKVDIK
notes: also called IgG 1C19
- Kd [1]: 0.844 nM
- Kd [2]: 19 nM
- Kd [3]: 4.55 nM
